The values below come from patent US20090325887A1.

This assay addresses Cav3.1 channel (α3.1 subunit). Briefly: cell-based or functional assay.

Where only a bound is given, the exact number is not on record here.

B1: γ6 TM1a peptide (peptide)
peptide: LGLLVAIV
B1: the amplitude of the fast component (Afast) of the unbinding process after 300 µM peptide (bi-exponential fit of current recovery) (normalized fraction) was -0.37; the apparent affinity (Kapp), overall was found to be 50 µM; the dissociation rate estimated from the time constant of Cav3.1 current recovery was 0.167 s⁻¹; the fast time constant for binding (fit of current inhibition) is less than 9 s. This molecule also registered a fast time constant for unbinding (fit of current recovery) of less than 9 s; a fold increase in affinity between -130 mV and -80 mV holding potential of 3 fold; an inhibition of Cav3.1 current at 30 µM peptide (whole-cell patch clamp, HEK/Cav3.1) of 45.3%; an inhibition of Cav3.1 current at 100 µM peptide, -100 mV of 60%. This molecule had an inhibition of Cav3.1 current at 300 µM peptide of 79.3%; a reversible part of the Cav3.1 current inhibition at 30 µM peptide of 73%; a time constant of the small slower component of the binding and unbinding processes of more than 30 s.

B2: γ1 TM1a peptide (peptide)
peptide: VTLFFILA
Molecule B2 returned an inhibition of Cav3.1 current at 30 µM peptide of 2.4%.

B3: γ1 TM1a T12GI16A peptide (peptide)
peptide: VGLFFALA
On to B3, for which the inhibition of Cav3.1 current at 30 µM peptide came to 29.4%.

B4: γ6 TM1a SCR peptide (peptide)
peptide: LLILAVGV
In the case of B4, the inhibition of Cav3.1 current at 30 µM peptide was determined as 0.5%.
